Results reported in the supplement of paper PMC10065799, “High-throughput profiling of sequence recognition by tyrosine kinases and SH2 domains using bacterial peptide display” (eLife, 2023).

Experiments:
Grb2 SH2 = Grb2 SH2 (UniProt P62993); experiment: SH2 binding enrichment of the phosphorylated peptide, bacterial display (enrichment ratio); higher = better substrate or ligand; peptides without Tyr show the background
c-Src SH2 = experiment: as above
SHP2-C SH2 = experiment: as above
MERTK = MERTK (UniProt Q12866); experiment: phosphorylation enrichment, bacterial display (enrichment ratio); higher = better substrate or ligand; peptides without Tyr show the background
Fes = Fes (UniProt P07332); experiment: as above
EPHB1 = EPHB1 (UniProt P54762); experiment: as above
Fyn = Fyn (UniProt P06241); experiment: as above
FGFR3 = FGFR3 (UniProt P22607); experiment: as above
Fer (mouse) = experiment: as above
c-Src = experiment: as above
Hck = Hck (UniProt P08631); experiment: as above
FGFR1 = FGFR1 (UniProt P11362); experiment: as above
AncSZ = experiment: as above
EPHB2 = EPHB2 (UniProt P29323); experiment: as above
Jak2 = Jak2 (UniProt O60674); experiment: as above
c-Abl (mouse) = experiment: as above
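Throughout, for SH2 binding enrichment of the phosphorylated peptide, bacterial display: peptide library displayed on the E. coli surface as eCPX fusions, selected cells deep-sequenced, score is each peptide's frequency after selection divided by its frequency in the input.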
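Throughout, for phosphorylation enrichment, bacterial display: 11-residue human phosphosite peptides and single-mutation variants displayed on the E. coli surface, counted by deep sequencing, each peptide's frequency after selection divided by its frequency in the unselected input library; frequency after pTyr selection over input frequency; kinase dosed for 20-30% of maximal phosphorylation in three min.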

Sequence of FGFR3 (P22607 whole entry, looked up): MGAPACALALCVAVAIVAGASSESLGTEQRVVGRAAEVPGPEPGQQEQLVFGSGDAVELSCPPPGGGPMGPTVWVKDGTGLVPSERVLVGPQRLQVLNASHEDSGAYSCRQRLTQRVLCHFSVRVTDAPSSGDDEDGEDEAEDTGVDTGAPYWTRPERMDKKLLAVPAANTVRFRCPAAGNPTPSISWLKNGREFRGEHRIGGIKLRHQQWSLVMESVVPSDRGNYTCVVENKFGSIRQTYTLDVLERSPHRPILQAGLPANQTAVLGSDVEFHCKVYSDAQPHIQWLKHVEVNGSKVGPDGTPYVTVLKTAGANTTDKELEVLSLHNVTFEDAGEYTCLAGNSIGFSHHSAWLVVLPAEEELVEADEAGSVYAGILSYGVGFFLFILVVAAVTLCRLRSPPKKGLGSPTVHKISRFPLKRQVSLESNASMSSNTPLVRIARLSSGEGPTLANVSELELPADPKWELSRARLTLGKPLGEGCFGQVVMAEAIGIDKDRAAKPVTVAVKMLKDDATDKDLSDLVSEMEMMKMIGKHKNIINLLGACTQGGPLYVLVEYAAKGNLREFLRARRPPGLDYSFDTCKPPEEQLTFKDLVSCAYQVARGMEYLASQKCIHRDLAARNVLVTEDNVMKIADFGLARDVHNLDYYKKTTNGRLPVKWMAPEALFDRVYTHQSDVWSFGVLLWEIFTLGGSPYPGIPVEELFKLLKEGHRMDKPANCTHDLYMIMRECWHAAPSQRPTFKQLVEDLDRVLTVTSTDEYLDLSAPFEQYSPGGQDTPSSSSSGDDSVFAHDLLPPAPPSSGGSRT
Sequence of EPHB1 (P54762 whole entry, looked up): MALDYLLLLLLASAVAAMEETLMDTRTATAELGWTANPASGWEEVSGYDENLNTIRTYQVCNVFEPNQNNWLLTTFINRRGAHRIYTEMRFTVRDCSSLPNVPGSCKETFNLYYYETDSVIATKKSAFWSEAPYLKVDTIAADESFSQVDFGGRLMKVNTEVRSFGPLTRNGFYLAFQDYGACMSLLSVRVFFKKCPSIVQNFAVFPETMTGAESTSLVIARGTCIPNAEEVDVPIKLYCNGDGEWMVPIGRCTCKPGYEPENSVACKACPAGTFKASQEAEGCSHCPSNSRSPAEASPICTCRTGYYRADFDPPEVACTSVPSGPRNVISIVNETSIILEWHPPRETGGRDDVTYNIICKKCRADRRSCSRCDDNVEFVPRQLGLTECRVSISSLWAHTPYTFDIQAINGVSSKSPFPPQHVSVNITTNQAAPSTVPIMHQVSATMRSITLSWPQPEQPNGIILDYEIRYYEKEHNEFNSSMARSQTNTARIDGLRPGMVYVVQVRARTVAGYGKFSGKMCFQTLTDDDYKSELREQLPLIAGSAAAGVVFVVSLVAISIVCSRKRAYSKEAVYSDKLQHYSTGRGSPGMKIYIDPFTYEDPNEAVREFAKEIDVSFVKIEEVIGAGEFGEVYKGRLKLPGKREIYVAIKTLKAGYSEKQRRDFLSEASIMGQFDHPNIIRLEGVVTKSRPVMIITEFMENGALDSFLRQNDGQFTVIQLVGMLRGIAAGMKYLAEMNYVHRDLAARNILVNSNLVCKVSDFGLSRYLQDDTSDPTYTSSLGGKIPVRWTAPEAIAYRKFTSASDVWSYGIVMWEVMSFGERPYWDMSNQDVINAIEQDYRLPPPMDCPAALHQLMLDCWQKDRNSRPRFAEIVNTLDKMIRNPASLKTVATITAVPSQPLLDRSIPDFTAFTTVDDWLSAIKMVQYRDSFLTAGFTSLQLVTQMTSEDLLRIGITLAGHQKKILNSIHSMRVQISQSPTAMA
Sequence of EPHB2 (P29323 whole entry, looked up): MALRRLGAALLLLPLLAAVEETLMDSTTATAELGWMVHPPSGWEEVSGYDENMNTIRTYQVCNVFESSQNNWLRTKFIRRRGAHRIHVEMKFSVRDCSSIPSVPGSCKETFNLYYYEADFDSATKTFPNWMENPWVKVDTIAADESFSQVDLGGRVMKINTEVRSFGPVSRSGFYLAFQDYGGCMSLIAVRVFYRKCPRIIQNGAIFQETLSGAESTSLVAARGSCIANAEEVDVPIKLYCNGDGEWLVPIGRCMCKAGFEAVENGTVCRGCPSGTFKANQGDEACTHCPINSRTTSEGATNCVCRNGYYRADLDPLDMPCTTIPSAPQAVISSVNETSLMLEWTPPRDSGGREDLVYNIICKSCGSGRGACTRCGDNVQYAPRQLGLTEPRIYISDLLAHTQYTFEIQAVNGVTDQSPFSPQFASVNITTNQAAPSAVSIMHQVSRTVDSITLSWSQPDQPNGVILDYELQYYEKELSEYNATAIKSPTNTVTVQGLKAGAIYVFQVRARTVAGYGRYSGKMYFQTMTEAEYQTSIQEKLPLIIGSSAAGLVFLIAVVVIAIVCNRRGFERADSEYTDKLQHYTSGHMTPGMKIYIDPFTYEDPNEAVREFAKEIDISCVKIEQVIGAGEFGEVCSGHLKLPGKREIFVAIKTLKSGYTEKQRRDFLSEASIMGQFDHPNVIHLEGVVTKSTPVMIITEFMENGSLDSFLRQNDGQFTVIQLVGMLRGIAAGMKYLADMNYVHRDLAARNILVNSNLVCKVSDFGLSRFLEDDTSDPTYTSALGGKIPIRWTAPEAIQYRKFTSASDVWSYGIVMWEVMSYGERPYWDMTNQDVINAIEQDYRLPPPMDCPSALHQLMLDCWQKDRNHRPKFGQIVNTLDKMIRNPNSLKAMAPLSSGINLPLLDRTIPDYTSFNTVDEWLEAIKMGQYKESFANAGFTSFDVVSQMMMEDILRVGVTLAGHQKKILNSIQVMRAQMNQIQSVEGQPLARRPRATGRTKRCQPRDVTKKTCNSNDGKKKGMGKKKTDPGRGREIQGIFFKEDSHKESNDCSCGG
Sequence of Hck (P08631 whole entry, looked up): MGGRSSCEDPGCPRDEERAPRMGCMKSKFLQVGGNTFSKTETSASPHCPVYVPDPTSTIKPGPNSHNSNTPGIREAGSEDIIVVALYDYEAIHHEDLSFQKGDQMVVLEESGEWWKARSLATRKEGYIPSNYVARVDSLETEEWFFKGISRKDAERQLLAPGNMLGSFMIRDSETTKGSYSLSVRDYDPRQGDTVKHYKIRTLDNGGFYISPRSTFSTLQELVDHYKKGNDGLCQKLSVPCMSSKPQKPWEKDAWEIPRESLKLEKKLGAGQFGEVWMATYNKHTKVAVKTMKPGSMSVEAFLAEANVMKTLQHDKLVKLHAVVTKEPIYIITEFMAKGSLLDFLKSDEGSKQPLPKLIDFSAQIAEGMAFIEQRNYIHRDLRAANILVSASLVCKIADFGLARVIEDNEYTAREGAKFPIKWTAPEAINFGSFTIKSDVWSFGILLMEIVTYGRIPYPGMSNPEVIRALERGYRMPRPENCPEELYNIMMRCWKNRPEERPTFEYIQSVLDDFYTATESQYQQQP
Sequence of MERTK (Q12866 whole entry, looked up): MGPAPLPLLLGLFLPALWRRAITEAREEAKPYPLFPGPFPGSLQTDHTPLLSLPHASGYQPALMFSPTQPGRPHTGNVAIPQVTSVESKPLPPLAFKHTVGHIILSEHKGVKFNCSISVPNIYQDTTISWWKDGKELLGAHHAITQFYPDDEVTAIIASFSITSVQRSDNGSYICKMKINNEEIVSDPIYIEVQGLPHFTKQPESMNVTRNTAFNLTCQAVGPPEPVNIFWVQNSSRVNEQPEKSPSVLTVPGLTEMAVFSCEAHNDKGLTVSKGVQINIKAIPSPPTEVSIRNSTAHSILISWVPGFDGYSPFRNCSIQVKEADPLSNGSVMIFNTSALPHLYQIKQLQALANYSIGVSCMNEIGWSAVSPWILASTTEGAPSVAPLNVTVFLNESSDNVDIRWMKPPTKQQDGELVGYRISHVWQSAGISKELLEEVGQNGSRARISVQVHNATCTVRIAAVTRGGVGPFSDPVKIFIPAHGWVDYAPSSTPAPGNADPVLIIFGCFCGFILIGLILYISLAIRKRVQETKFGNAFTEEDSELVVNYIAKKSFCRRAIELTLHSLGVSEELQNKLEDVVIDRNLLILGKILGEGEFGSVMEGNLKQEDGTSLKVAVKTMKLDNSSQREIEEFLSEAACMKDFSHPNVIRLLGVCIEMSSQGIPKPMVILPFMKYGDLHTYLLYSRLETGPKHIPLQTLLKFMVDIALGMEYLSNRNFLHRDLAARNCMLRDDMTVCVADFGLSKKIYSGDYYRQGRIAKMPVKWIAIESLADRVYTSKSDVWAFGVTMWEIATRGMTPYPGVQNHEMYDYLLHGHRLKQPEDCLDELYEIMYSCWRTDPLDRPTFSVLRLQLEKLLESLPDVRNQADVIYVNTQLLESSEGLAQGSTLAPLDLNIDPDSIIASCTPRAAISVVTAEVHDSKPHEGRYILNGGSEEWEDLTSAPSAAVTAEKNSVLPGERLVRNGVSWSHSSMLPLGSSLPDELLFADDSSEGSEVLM
Sequence of Fyn (P06241 whole entry, looked up): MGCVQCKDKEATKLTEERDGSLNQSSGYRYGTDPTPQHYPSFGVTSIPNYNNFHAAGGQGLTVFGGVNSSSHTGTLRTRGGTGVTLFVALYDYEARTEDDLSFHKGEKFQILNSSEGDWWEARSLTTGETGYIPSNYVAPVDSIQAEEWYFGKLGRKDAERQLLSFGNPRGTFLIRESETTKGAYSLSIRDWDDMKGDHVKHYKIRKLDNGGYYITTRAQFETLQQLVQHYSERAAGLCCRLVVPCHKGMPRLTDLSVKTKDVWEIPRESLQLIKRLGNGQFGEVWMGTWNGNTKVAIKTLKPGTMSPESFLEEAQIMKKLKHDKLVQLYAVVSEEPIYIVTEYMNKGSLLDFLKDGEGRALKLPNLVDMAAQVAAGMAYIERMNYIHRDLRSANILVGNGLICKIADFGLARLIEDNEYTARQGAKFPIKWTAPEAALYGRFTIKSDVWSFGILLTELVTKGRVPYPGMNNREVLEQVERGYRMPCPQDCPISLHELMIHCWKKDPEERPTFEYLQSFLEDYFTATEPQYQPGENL

Sequence	SH2 binding enrichment (Grb2 SH2)	SH2 binding enrichment (c-Src SH2)	SH2 binding enrichment (SHP2-C SH2)	phosphorylation enrichment (MERTK)	phosphorylation enrichment (Fes)	phosphorylation enrichment (EPHB1)	phosphorylation enrichment (Fyn)	phosphorylation enrichment (FGFR3)	phosphorylation enrichment (Fer (mouse))	phosphorylation enrichment (c-Src)	phosphorylation enrichment (Hck)	phosphorylation enrichment (FGFR1)	phosphorylation enrichment (AncSZ)	phosphorylation enrichment (EPHB2)	phosphorylation enrichment (Jak2)	phosphorylation enrichment (c-Abl (mouse))
TKGMIYGGGGG [PSME1_Y249]	1.05	0.483	0.812	0.433	0.505	0.339	0.49	0.377	0.431	0.535	0.556	0.457	0.494	0.416	0.501	0.613
TLAHKYHGGGG [HBB_Y146_A141T]	0.567	0.558	0.67	0.577	0.973	0.46	0.497	0.494	0.436	0.675	0.681	0.611	0.652	0.398	1.1	1.03
TLMNAYSSRCH [KIF11_Y231_S235C]	0.943	0.581	0.726	0.448	0.836	0.602	0.571	0.637	0.535	0.471	0.496	0.492	1	0.553	0.776	0.738
TLQSMYGCDVG [HLA-B_Y123]	1.08	0.559	0.812	0.406	0.979	0.598	0.552	0.667	0.612	0.661	0.525	0.497	0.935	0.71	0.843	0.639
TPIYPYLLPKS [PLD2_Y580_T577I]	0.943	1.17	0.855	1.8	0.776	0.578	0.435	0.698	0.426	0.624	0.547	0.812	0.837	0.559	1.59	0.65
TRDTDYQMTKR [ADA_Y308_L304R]	0.821	0.544	0.447	0.344	0.646	0.383	0.377	0.7	0.359	0.31	0.373	0.394	0.639	0.446	0.525	0.501
TRNVRYLTLDI [AKR1C2_Y305_N300T]	0.985	1.73	6.49	0.372	0.887	0.787	0.407	0.634	0.429	0.384	0.487	0.421	0.633	0.521	0.684	0.557
TRSFKYLLLSM [NF1_Y491_YF]	1.05	1.05	1.21	0.399	1.07	0.663	0.386	0.548	0.38	0.426	0.44	0.43	1.12	0.51	0.977	0.706
TSAEGYQDVRD [ABLIM1_Y439_P434T]	0.909	4.85	0.779	0.517	1.36	0.73	0.679	0.659	0.551	0.602	0.691	0.77	1.17	0.774	1.16	0.766
TSFSGYRCHRH [NKAPL_Y94_Y96C_YF]	1.01	0.661	0.901	0.469	0.727	0.576	0.419	0.45	0.464	0.414	0.469	0.552	0.703	0.486	0.718	0.562
TSKLNYLDPRI [TOP1_Y723]	0.813	0.554	1.09	0.359	0.599	4.39	0.371	0.585	0.241	0.405	0.3	0.919	0.534	1.7	0.506	0.407
TTIVSYRASQP [MKI67_Y1737_K1734I]	0.688	0.532	0.74	0.438	0.663	0.454	0.481	0.477	0.457	0.539	0.481	0.441	0.591	0.305	0.6	0.654
TVFENYVADIE [RHOA_Y42]	0.798	0.541	0.618	0.631	1.15	0.647	0.58	0.925	0.513	0.521	0.588	0.642	1.42	0.664	1.46	0.861
TYTVSYLPDMS [FLNC_Y1602]	0.792	0.375	0.623	0.733	0.874	0.528	0.568	0.656	0.491	0.561	0.582	0.512	1.05	0.705	0.903	0.55
VATRWYRSPEP [CDKL5_Y177_L182P]	0.796	0.422	0.629	0.421	0.719	0.55	0.525	0.523	0.379	0.394	0.431	0.482	0.638	0.537	0.565	0.397
VDSIEYEVASQ [SLC7A7_Y7_T5I]	0.793	0.452	0.741	0.545	1.18	0.594	0.491	0.729	0.464	0.466	0.567	0.451	1.22	0.618	1.36	0.821
VECRVYAEDPF [PCCA_Y401_YF]	0.674	0.54	0.426	0.481	1.68	0.766	0.553	0.845	0.669	0.693	0.578	0.495	1.43	0.677	1.6	1.11
VKMLLYTEVTR [GDI1_Y93]	0.869	0.771	0.706	2.58	1.43	3	0.759	0.883	1.08	0.834	1.24	0.529	1.32	1.25	1.23	0.83
VKPENYWRLDI [VHL_Y175_R176W]	0.902	0.586	0.876	0.588	1.15	0.814	0.381	0.895	0.441	0.377	0.443	0.783	1.13	0.61	1.39	0.839
VLDCHYPEDEV [C1QBP_Y188]	1.01	0.468	0.929	0.556	1.27	0.589	0.464	0.88	0.632	0.571	0.629	0.596	1.22	0.725	1.3	0.919

More lines, main results first:

SH2 binding enrichment (Grb2 SH2)	SH2 binding enrichment (c-Src SH2)	SH2 binding enrichment (SHP2-C SH2)	Sequence	phosphorylation enrichment (MERTK)	phosphorylation enrichment (Fes)	phosphorylation enrichment (EPHB1)	phosphorylation enrichment (Fyn)	phosphorylation enrichment (FGFR3)	phosphorylation enrichment (Fer (mouse))	phosphorylation enrichment (c-Src)	phosphorylation enrichment (Hck)	phosphorylation enrichment (FGFR1)	phosphorylation enrichment (AncSZ)	phosphorylation enrichment (EPHB2)	phosphorylation enrichment (Jak2)	phosphorylation enrichment (c-Abl (mouse))
0.887	0.514	0.408	THQKSYQPGRK [CEFIP_Y210_N208K]	0.308	0.472	0.273	0.371	0.362	0.464	0.322	0.52	0.433	0.437	0.432	0.349	0.35
1.12	0.591	0.715	TIMTNYNPNYC [ALK_Y1092_D1091N]	0.407	0.901	0.619	0.565	0.549	0.46	0.45	0.548	0.545	0.758	0.5	0.639	0.558
0.728	0.356	0.48	TMEDSYRKQVV [KRAS_Y40_I36M]	0.411	0.774	0.556	0.273	0.595	0.403	0.38	0.425	0.366	0.69	0.367	0.663	0.594
1.2	0.643	0.731	TTANRYLKVSD [MYOM2_Y871]	0.409	0.641	0.38	0.404	0.41	0.484	0.486	0.607	0.453	0.546	0.432	0.492	0.526
0.71	0.503	0.484	TTPGPHRSIYF [MPG_Y71_Y71H]	0.479	0.577	0.355	0.359	0.526	0.396	0.458	0.411	0.579	0.569	0.444	0.357	0.538
0.791	1.98	0.649	TVLEPYTDPFF [ZC3H18_Y367_A368T_YF]	0.519	1.09	0.463	0.535	0.909	0.438	0.514	0.501	1.29	1.25	0.429	1.09	0.685
0.834	0.551	0.979	VDEVLYEDSSA [MTHFS_Y197_T202A]	0.508	1.16	0.637	0.502	0.609	2.08	0.647	0.716	0.679	1.47	0.577	1.29	0.923
0.883	3.89	0.833	VEDHYYEGGIG [TKT_Y564]	0.524	1.11	0.581	0.559	1.73	0.688	0.628	0.636	1.59	1.1	0.65	1.05	0.837
1.35	1.42	1.47	VEDQYYCVDCY [FHL1_Y208]	3.19	1.48	1.02	2.34	10.3	1.11	2.77	1.46	12	5.02	0.754	1.86	1.1
0.823	0.555	1.04	VEKGSYSALRA [ABCC2_Y845_L849R]	0.325	0.551	0.348	0.34	0.396	0.338	0.314	0.351	0.356	0.43	0.296	0.551	0.438
1.24	1.04	1.08	VFPIDYYFPPQ [AR_Y552_L548F]	2.24	0.914	3.22	0.816	12.9	0.536	1.34	0.851	13.8	5.64	3.65	6.13	0.922
0.662	0.389	0.77	VKMLEYLGKDV [CASP5_Y74]	0.504	0.726	0.422	0.454	0.453	0.413	0.337	0.491	0.375	1.07	0.651	0.591	0.57
7.46	2.57	1.06	VKYGAYINDFK [GLB1_Y488_N484K]	0.381	0.791	0.455	0.568	0.463	0.353	0.566	0.379	0.363	0.691	0.46	0.573	0.605
